This is an account of results in paper doi:10.1101/2025.10.27.684738.

The target in data set [1] is ANXA11 Nt (UniProt P50995 1-191). The data set can be described thus: MST.
For data set [2], the target named is T1, ANXA11 Ct (UniProt P50995 201-505).
T1 sequence: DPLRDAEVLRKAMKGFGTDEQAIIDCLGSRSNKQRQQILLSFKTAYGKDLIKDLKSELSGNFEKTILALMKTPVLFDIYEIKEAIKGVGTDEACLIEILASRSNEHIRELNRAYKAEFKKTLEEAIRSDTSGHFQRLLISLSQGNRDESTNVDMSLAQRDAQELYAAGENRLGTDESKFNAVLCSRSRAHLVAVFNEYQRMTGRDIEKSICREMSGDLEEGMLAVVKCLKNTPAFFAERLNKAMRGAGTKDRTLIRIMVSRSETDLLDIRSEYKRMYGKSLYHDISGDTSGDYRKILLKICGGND
The data set can be described thus: MST.

ANXA11 Nt, sequence (P50995 1-191): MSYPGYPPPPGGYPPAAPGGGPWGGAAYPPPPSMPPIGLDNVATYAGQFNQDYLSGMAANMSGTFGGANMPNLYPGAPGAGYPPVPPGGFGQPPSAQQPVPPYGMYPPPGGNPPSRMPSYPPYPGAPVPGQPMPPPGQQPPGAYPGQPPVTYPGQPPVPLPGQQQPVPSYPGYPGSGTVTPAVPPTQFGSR

On to UUUUUUUUUU (ssRNA) [poly-U 10-mer RNA], for which the values for the Kd in data set [1] and in data set [2] were 4.18 ± 0.8 µM and 3.55 ± 0.3 µM, respectively.
